Reference: patent US20220332804A1 (CSL INNOVATION, published 2022)
Numbering of substitutions follows the chain as printed.

How the values were obtained:
Experiment in all cases: SPR, antibody captured, C2 as analyte;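 further: biacore SPR at 37 °C, anti-C2 mAbs captured via goat anti-human IgG on CM5 chips, double-referenced sensorgrams fit to a 1:1 kinetic or steady-state model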
human C2 L701A = target: T1, human C2 L701A (human, UniProt P06681 21-752)
T1 sequence: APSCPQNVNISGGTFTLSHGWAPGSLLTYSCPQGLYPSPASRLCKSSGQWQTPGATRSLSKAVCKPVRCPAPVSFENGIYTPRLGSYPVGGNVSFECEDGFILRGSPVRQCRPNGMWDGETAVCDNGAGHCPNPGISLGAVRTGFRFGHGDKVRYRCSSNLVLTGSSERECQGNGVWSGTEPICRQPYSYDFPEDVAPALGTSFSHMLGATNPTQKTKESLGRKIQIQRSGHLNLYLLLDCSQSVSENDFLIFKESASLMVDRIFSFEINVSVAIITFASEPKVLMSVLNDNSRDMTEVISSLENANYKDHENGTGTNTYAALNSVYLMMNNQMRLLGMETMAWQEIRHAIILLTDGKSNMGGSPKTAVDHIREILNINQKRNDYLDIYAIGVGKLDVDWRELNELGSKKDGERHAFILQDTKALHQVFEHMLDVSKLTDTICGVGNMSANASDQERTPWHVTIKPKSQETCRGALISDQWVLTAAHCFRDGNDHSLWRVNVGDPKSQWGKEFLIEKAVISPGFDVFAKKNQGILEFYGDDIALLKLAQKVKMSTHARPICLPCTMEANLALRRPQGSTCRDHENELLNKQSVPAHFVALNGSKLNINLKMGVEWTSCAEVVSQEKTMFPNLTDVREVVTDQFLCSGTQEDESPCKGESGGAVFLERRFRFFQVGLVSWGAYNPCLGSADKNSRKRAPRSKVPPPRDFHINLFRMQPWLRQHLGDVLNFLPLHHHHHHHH

human C2 L439A = target: T2, human C2 L439A (human, UniProt P06681 21-752)
T2 sequence: T1 sequence with L419A, A681L

human C2 L453A = target: T3, human C2 L453A (human, UniProt P06681 21-752)
T3 sequence: T1 sequence with L433A, A681L

human C2 P486A = target: T4, human C2 P486A (human, UniProt P06681 21-752)
T4 sequence: T1 sequence with P466A, A681L

B1: RF16-226 (antibody, human IgG4 S228P, lambda)
heavy: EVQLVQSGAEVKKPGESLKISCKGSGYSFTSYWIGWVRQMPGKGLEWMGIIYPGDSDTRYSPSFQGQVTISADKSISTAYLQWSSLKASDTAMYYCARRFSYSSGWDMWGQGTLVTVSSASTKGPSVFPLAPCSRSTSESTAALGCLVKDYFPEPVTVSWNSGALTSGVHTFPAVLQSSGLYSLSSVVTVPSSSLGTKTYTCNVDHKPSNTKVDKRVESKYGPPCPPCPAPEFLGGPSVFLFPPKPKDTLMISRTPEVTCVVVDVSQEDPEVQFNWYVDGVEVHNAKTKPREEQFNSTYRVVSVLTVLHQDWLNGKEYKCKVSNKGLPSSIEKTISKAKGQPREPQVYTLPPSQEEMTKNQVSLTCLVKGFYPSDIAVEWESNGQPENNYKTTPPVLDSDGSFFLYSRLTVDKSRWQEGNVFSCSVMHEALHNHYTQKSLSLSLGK
light: SYELTQPPSVSVSPGQTARITCSGDALTSKYVAWYQQKSGLAPLLVIYEDTRRPSGIPAKFSGSSSGSVATLTISGAHGDDEADYYCYSTDASGHQRVFGGGTKLTVLSQPKAAPSVTLFPPSSEELQANKATLVCLISDFYPGAVTVAWKADGSPVKAGVETTKPSKQSNNKYAASSYLSLTPEQWKSHRSYSCQVTHEGSTVEKTVAPTECS
notes: pH-dependent anti-C2 antibody from a phage display library; also called WT
Binder B1 has a Kd (human C2 L701A) of 165 nM, a Kd (human C2 L439A) of 118 nM and a Kd (human C2 L453A) of 29.9 nM. For the same binder, the Kd (human C2 P486A) was 11.1 nM.
